Experimental data from the nanobody polyreactivity screen of Harvey et al. (2022).

Assay: yeast display, Sf9 membrane polyspecificity reagent, FACS + sequencing; frameworks hold sequencing errors
Method in brief: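 Genes from sorted yeast were amplified by colony PCR, read by MiSeq 2 × 250 sequencing and filtered on CDR length. These cells carried a synthetic nanobody library in Saccharomyces cerevisiae BJ5465 and were sorted by FACS into low and high (top ~1%) gates on anti-HA and streptavidin fluorescence. Polyreactivity is labelled according to the gate of origin.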

| Sequence | polyreactivity (PSR sort gate) |
| --- | --- |
| QVHLVESGGGLVQAGGSRRLSCAASGRISTLNALGWYRQAPGKVWEFVAAISWRGGSTYYADSVKGRFTISRDNAKNTVYVQMNSLKPEDTAVYYCAARPYTLAFYRFGYWGQGTKVTVSS | high polyreactivity |
| QVHLVESGGGLVQAGGSRRLSCAASGSIFRWYAMGWSRQAPGKERELVAAITRSGGRTYYADSVKGRFTISRDNAKNTVYLQMNSLKPEDTAVYYCAAVARTVPSYSYNYWGQGTQVTVSS | high polyreactivity |
| QVHLVESGGGLVQAGVSLRLSCAASGRTVVNAMGWYRQAPGKERELVAAISSNGGRTYYADSVKGRFTISRDNAKHSVYLQMNSLKPEDTAVYYCAAYNTHRYDYWGQGTQVTVSS | high polyreactivity |
| QVHLVESGGGLVQARGSLRLSCAASGSTIGYNTMVWYRQAPGKERELVAAITSGGRTYYADSVKGRFTISRDYAKNTVYLQMNSLKPEDSAVYYCAAYYWWGYPENEYWGQGTQVTVSS | high polyreactivity |
| QVHLVESGGGLVQGGGSLRLSCAASGGTIYYYAMGWYRQAPGKERELDAANRCSGGSTYYADSVKGRFTISRDIAKNTVSLQMNSLKPEDTAVYYCPSRGGNPKGYGYLAFNYWGQGTQVTVSS | high polyreactivity |
| QVHLVESGGGLVQPGGSLRLSCAASGFPFYINAMGWYRQAPGTERELVAAITIGSTTYYADSVKGRCTISRDNAKNTVYLQMNSLKPEDTAVYYCAAEVWRDYTSRLYDYWGQGTQVTVSS | low polyreactivity |
| QVHLVESGGGLVQSGGSLRLTCAASGRTFSQYAMGWYRQAPWKERDLVAAISWSGGSTYYADSVKGRFTFSRDNAKNTVYLEMNSLKPEDTAVYYCAAVGKGSARSSYQVLYDYWGQGTQVNVSS | low polyreactivity |
| QVHLVESGGRLVQAGGSLRLSCAASGSTFGYYAMVWYRHAPGKDRELVAAITSGASTYYADSVKGRFTISRDNAKKTVYLQMNSLKPEDTAVYYCAARRWRKYYSGYNYWGQGTQVTVSA | high polyreactivity |
| QVHLVESGGVLVQAGGSLRLSCAASGRIFYRYAMGWYRQAPGKERELVAAITHRGGSTYYADSVKGRFTISRDNAKNTVYLQMNSLKPEDTAVYYCAGRITEAVADYVGHKPYDYWGQGTQVTVSS | low polyreactivity |
| QVHLVESGRGFVQAGGSLRLSCAASAFTFHSYAMGWYRQAPGKERELVASISSSGSTNYADSVKGRFTISRDNEKNTVYLQMISLKPEDTAVSYCAAESRYPFIYEYWGQVTQVTVSS | low polyreactivity |
| QVHLVESGVGLVQAGGSLRLSCAASGITFGYYAMGWYRQAPGKERENVAAITRRGGSTYYADSVKGRFTISRDNAKNTVYLQMNSLKPVDTAVYYCAAVSYRYWFIEDNYWGQGTQVTVSS | high polyreactivity |
| QVHLVESGVGLVQAGGSLRLSCAASGQIFPYYAMGWYRPAPGKETELVAAITSGGGTYYADSVKGRFTISRDNAKNTVYLQMNSLKPEDTAVYYCAVGSYGHPKHRRNLDYWGQGTQVTVSS | low polyreactivity |
| QVHLVESGVGLVQAGGSLRLSCASSGSTFYAYAMGWYRQAPGKERELVAAIDSGGSTYYADSVKGRFTISRDNAKNTVYLPMNILKPEDSAVYYCAVRHRYTRAYWGRDYWGQGTKVTVSS | low polyreactivity |
| QVHLVESGVGLVQAGGSLRLSCASSGSTYKPNALGWYSQAPGKESEFVAAITSGSTYYADTVKGRYTISRDNAKYNVYLQMNSLKPEDTAVYYCATSVRGKSPYRKSGSYYYWGQGTQVTVSS | high polyreactivity |
| QVHLVESGVGLVQARGSLRLSCASSGSTFGGNAMGWYRQAPGTERELVAAIDSGGGTNYADSVKGRFTIARDNAKNTVYLQMTSLKPEDTAVYYCNADWAVRSTQNSSSGHDYWGQATQVTVSS | low polyreactivity |
| QVHLVESGVGLVQSGGSIRLTCAASGSTFHVYTKGSYRQAPGKEREFVASISCSGSSTYYADSVKGRFTISRDNAKNTVYLQMNSLKPEDTAVYYCNVDRWWLGWYKFNYWGQGTQVTVSS | high polyreactivity |
| QVHLVESVGGLVQAGGSHRLSCAASGRTLGFYAMGWYRQAPGKERELVAAINWSGGSTYYADSVKGRFTISRDNAKNTVYLQMNSLKPEDTAVYNCGVGTNYYDYWGQGTQVTVSS | high polyreactivity |
| QVHLVESVGGLVQAGGSLRISCAASGRIFSKYAMGWYRQAPGKDRELVGAITSSTKYADSVKGRFTISRDNAKNTVYLQMHSLKPEDTAVYSCNAEFVWHTYYGADFKMDYWGQGTQVTVSS | high polyreactivity |
| QVHLVESVGGLVQAGGSLRLSCAASGRTFPYNAMGWYIQAPGKERELVAVISKGGGRTYYADSVKGRFTISLDNAKNTVYLQMNSLKPEDTAVYYCDARYDGSSDYRLNYWGQGTQVTVSS | high polyreactivity |
| QVHLVESVGGLVQAGGSLRLSCAASGRTFRRYAMVWYRQAPGKERELVATITSADSTNYADSVKGRFTISRDNAKNTVYLQMNSLKPEDTAVYYCAKRWGRYAMYYWGQGTQVTVSS | high polyreactivity |
| QVHLVESVVCLVQAGGSLALSCASYGSIFRYYALGWYIQGTGKESELVAGITWGCRRTFYADSEKGRFTISRHNAKNTFYIQMNILKPEDTAVCYCAPRWFWKAYRFYYWGQGTQLTVSS | high polyreactivity |
| QVHLVETGGGLVHAGGSLRLSCAASGFIFGVNAMGWYRQAPGKERELDAAITRNGGSTYYADSVKGRFTISRDYAKNTVYLQMNSLKPEDTAVYYCAKYVRRAPSSIDVDYWGQGTQVTVSS | high polyreactivity |

| Sequence | polyreactivity (PSR sort gate) |
| --- | --- |
| QVHLVETGGGLVQAGGSLRLSCAASGRTFYVNAMGWYRQAPWKERELVARITSGGSTYYADSVKGRFTISRDNAKNTVYLQMNSLKPEDTAVYYCAKKYIGYQVWIHSTRRYDYWGHGTQVTVSS | low polyreactivity |
| QVHLVETGGGLVQAGGSLRLSCAASGSIFSSYHMVWYRQAPGKERELVASISSGGSTNYADSVKGRFTISRDNAKNTVYLHMNSLNPEVTAVYYCNVDLYNWRGDSTGYDYWGQGTQVTVSS | low polyreactivity |
| QVHLVETGGGLVQAGGSPRLSCAASGRTLLDYGLGWYRQAPGKERELVAGITSSGGRSYADSVKGRLTISRDNAKNTVYLEMNSLKPEDSAGYYCAAYLNLSELLRYHYWGKGTQVTVSS | low polyreactivity |
| QVHLVETGRGLLQSGGSLRISCAASGRTFIYNAMGWYRQAPGKERELVARISSGGGNTYYAYSVKWRFTISRDNANNTVYLLMNSLKPEDTAVYYCAIGWRPSFSYYWGQGTQVTVSS | high polyreactivity |
| QVHLVQSGGGIVQEGGSLRISCAASGFTLIHYAMGWYRQAPGKERELVAGITTSGGSTYYADSVKGRFTISRDNAKNTVYLQMKSLKPEDTGVYYCADSSNTRGDYWGQGTQVTVSS | high polyreactivity |
| QVKHVESGGGLVKAGGSLRLSCPAAGRIIDKYAMGWYRQSPGKERELVATITSSGGSTYYADSVKGRFTISRDTAMNNVYLQMNSLKPEDTAVYYCDALDRTGYSRGETRSLYYFWGQGTQVTVSS | low polyreactivity |
| QVKHVESVGRLVQAGGSLRLSSASSGRIFRSYAMGCYRQAPGKESEYVAAISRSGGRTYYADSVKGRFTISRDNAKNTVYLQMNSLKPEDSAVYYCAVVDYHVHSSDYNYWGQGTQVTVSS | high polyreactivity |
| QVKLEESGGGLLQAGGSLRLSCAASGRIIGDYAMGSYRQAPGKERELVAANDRGGSTHYADSVKGRYTISRDNAKNTFYFQMNSLKPEDTAVYYCNLDVWANIKSRCIFAGWYDYWGQGTQVTVSS | low polyreactivity |
| QVKLLDSGGGLVQAGGSLRLTSAASGRIFYTNAMGWYRQEPGKERELVAVISWGGDTTYYADSVKGRFTISRDNAKNTVYLQMTSLKPEDTAVYYCNADWGATYEIYDSWGQGTQVTVST | low polyreactivity |
| QVKLLESGGGLVQAGGSLLLSCAASGSIFDGYSMVWYRQAPGKEREFVASIRFSTGRTYYADSVKGRFTISRDNAKNTVYLQMNSLKPEDTAVYYCNAPQGFVWRYSSWGPYDYWGQGTQVTVSS | high polyreactivity |
| QVKLVESAGGLVKAGGSLRLSSAASGITFNLYAMGCYSQSPGKERELVAAISWSGGSTYYADSVKGRFTISREHAKNTVYLQMNSLNQEDTAVYYCAAAWDYSAPYTYIYDYWGLGTQVTVSS | low polyreactivity |
| QVKLVESAVGLVQAGGSLRLSCAASGRTFCSYAMGWYRQAPGKERELVAAISRGGSRTYYADSVKGRFTISRDNAKNTVYLQMNSLKPEDTAVYYCAADPTASGHFLGQVDYWGQGTQVTVSS | high polyreactivity |
| QVKLVESAVRLVQAGGSLRLSCAASASTLYRYSMGLYRQAPGKERELVAAISSSGGSSYYADSVKGRFTISRDNAKNTVYLQMNRLKQEDTAVYYCSAAALRTIGAGYRYGNWGQGTQVTVSS | high polyreactivity |
| QVKLVESGAGLVQAGASLRLSCAASGLIFHQYAMGWYRQAPGKERELVAAITRSGTRTYYADSVKGRFTISRDNEKNTVYLQMNSLKPEDTAVYYCAAADTQGVSMDYWGQGTQVTVSS | high polyreactivity |
| QVKLVESGGALVQAGGSLRLSCAASGRNFSSYAMGRYRQAPGKERYLVARISSSGGGTSYADSVKGRFTISRDNAKNTVYLQMNSLKPEDTAVYYCAAEDQYYRYFFSYEYWGQGTQVTVSS | high polyreactivity |
| QVKLVESGGCLVQAGCSLRLSCAASGRTFHGYAMGWYRQAPGTERELVAAITVSGDSTYYADSVKGRFTISRDNAKNTVYLQMNSLKPEDTAVYYCNASFREPSTPVYLVAFDYWGQGTQVTVSS | low polyreactivity |
| QVKLVESGGGLVQAGGSIRLSCAASGSTFATYAMGCYRQAPGKERELVAAITSGGSTDYADSVKGRFTISRDNAKNTVYLQMNSQKPEDTAVYYCNATWVLLSYYYLFWCYDYWGQGTQVTVSS | low polyreactivity |
| QVKLVESGGGLVQAGGSISLTCAASGSIFYKYVMGWYRQAPGKERELVAAISRGGGSTYYADSVKGRFTISRDNAKNTVYLQMNSLKPEDTAVYYCYAVGRPRYGHGFDHWGQGTQVTVSS | high polyreactivity |
| QVKLVESGGGLVQAGGSLRISCAASGRIFKIYAMGWYRQAPGKERELVAAISRGGRTYYADSVKGRFTISRDNAKNTVDLQMNSLKPEDTEVYYCAADLLISPEFYYWGQGTQVTVSS | high polyreactivity |
| QVKLVESGGGLVQAGGSLRLSCAASGFTFGRYAMGWYRQAPGKERELVAAITRRGGSTYYADSVKGRFTISRDNAKNTVYLQMNSLKPEDTAVYYCNKVKQTRTDHDYWGQGTQVTVSS | high polyreactivity |
| QVKLVESGGGLVQAGGSLRLSCAASGFTIANYAMGWYRQAPGKERELVAAITTSGSTYYADSVKGRFTISRDNAKNTVYLQMNSLKPEDTAVYYCAVSIWVWFASGFDYWGQGTQVTVSS | high polyreactivity |
